Assay [1] concerns the target Mouse TREM2 peptide (aa 131-169) (mouse) (UniProt Q99NH8). The assay is described as follows: ELISA, biotinylated stalk peptide on streptavidin plate, anti-human kappa-HRP detection.
In assay [2] the target is Human TREM2 peptide (aa 129-172) (human). The assay is described as above.
Assay [3] concerns the target T1, Mouse TREM2 peptide (aa 149-163) (mouse, UniProt Q99NH8 149-163, also: biotinylated).
T1 construct: range 149-163; also called truncated stalk peptide, mouse
T1 peptide (looked up): SFEGAQVEHSTSRNQ
Described as above. The method, then: (§1) TREM2 antibodies were evaluated for binding to human and mouse TREM2 stalk region peptides. […] Antibody binding to TREM2 stalk peptides was detected using standard sandwich ELISA. Briefly, a 96-well half-area ELISA plate was coated with streptavidin overnight at 4° C. The following day, biotinylated TREM2 stalk peptides diluted in 1% BSA/PBS were added to the plate and incubated for 1 hour. Antibodies diluted in 1% BSA/PBS were then added and incubated for 1 hour. Antibodies bound to peptide were detected with anti-human kappa-HRP secondary antibody (Bethyl Laboratories, Inc.) diluted in 1% BSA/PBS. Plates were assayed by reaction with a detection reagent (One-step TMB Ultra, Thermo) and measurement of absorbance at 450 nm (A450) by standard spectrophotometry instrumentation (BioTek®). Data are shown as normalized values (fold over background where background=isotype control).

Assay [4] addresses T2, Human TREM2 peptide (aa 149-163) (human, also: biotinylated).
T2 construct: also called truncated stalk peptide containing the ADAM10/17 cleavage site
T2 peptide: SFEDAHVEHSISRSL
The description is as above. The protocol:
as §1

Assay [5] deals with T3, recombinant cynomolgus TREM2 ECD (cynomolgus, UniProt A0A2K5UY34 49-204).
T3 construct: extracellular domain; also called cyno TREM2
T3 sequence: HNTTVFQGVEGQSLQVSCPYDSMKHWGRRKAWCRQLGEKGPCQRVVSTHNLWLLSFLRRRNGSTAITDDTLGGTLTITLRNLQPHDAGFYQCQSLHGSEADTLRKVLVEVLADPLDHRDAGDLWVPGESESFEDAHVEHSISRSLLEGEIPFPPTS
The experiment in a line: SPR (Biacore), cynomolgus TREM2. The method, then:
(§2) Surface plasmon resonance (Biacore™ 8K instrument) was used to measure anti-TREM2 antibody affinities for human and cynomolgus TREM2 ECD. Anti-TREM2 antibodies were captured using Human Fab Capture Kit (GE Healthcare Life Sciences, Catalog No. 28958325) on a Biacore Series S CM5 sensor chip (GE Healthcare Life Sciences, Catalog No. 29149604). Serial 3-fold dilutions of recombinant human or cynomolgus TREM2 were injected at a flow rate of 30 μL/min. Antibody binding was monitored for 300 seconds, followed by monitoring of antibody dissociation for 600+ seconds in HBS-EP+ running buffer (GE Healthcare Life Sciences, Catalog No. BR100669). The binding response was corrected by subtracting the RU value from a blank flow cell. A 1:1 Languir model of simultaneous fitting of kₒₙ, and koff was used for kinetics analysis.
(§3) The affinity of anti-TREM2 antibodies to human TREM2 and cynomolgus TREM2 were measured by Biacore (described in Example 1). The potency of anti-TREM2 antibodies were measured in healthy human volunteer CSF samples (Innovative Research) and healthy cynomolgus monkey CSF samples (Worldwide Primates), by MSD assay. The potency of each antibody was determined by its EC50. Briefly, MSD GOLD 96-well small spot streptavidin plates (MSD, Cat. No. L45SA) coated with capture antibody (biotinylated goat anti-human TREM2, R&D Systems, Cat. No. BAF1828) was incubated with biofluid samples diluted 1:3 in Assay Buffer (25% (v/v) MSD Blocker A (MSD, Cat. No. R93BA-A), 75% (v/v) TBST) for one hour at room temperature. After rinsing the wells with TBST, sulfo-tagged anti-TREM2 antibody was added in a serial dilution (4× dilution over 11 points) to the wells of the plate and incubated for one hour at room temperature. The wells were washed with TBST, and MSD Read Buffer (MSD, Cat. No. R92TC-3) was added to the wells. Signal from the samples were measured using an MSD Meso Sector 5600 device. EC50 values for each antibody was determined by four-parameter variable slope non-linear regression. Reference antibodies #1 and #2 correspond to 4C5 and 6E7 described in WO 2018/195506. Reference antibody #3 corresponds to AL2p-58 described in WO 2019/028292. The variable regions of reference antibody #1 are represented by SEQ ID NOS:73 and 74.

The target of another assay is T4, sTREM2 in cynomolgus CSF (cynomolgus monkey, UniProt A0A2K5UY34 49-187).
T4 construct: domain: soluble TREM2 (sTREM2); also called soluble TREM2 in healthy cynomolgus monkey CSF
T4 sequence: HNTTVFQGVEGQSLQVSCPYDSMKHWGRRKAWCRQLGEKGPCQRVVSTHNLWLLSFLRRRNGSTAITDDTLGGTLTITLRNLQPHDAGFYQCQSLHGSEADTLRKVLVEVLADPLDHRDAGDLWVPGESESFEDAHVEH
The assay is described as follows: MSD assay, sTREM2 from CSF captured by biotinylated goat anti-human TREM2, sulfo-tagged test antibody titrated. The protocol: as §3, with “74. The variable regions of reference antibody #2 are represented by SEQ ID NOS:75 and 76. The variable regions of reference antibody #3 are represented by SEQ ID NOS:77 and 78.” for “74.”

In assay [6] the target is T3, recombinant cynomolgus TREM2 ECD. The assay is described as follows: SPR (Biacore 8K), antibody captured with Human Fab Capture Kit, recombinant TREM2 ECD injected, 1:1 fit. The protocol:
as §2
(Surface plasmon resonance follows binding to a sensor surface in real time, without labels.)

No end group written: not given here.

Human TREM2 peptide (aa 129-172) (human), sequence (peptide, as listed by the source): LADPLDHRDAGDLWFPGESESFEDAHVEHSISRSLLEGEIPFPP
Mouse TREM2 peptide (aa 131-169) (mouse), sequence (Q99NH8 131-169 limits assumed, form in doubt): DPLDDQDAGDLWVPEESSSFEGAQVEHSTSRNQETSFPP

Take Isotype control (antibody): the A450 fold over background (background = isotype control) in assay [1], in assay [2], in assay [3] and in assay [4] was 1 fold in each case.

B1: CL0020123-5 (antibody, V domains shown)
VH: QVQLVQSGAEVKKPGASVKVSCKASGFSIEDFYIHWVRQAPGQGLEWMGWIDPEQGESKYAPKFQGRATITADTSTSTAYMELSSLRSEDTAVYYCHADHGNYGSTMDYWGQGTLVTVSS
VL: DIQMTQSPSSLSASVGDRVTITCHASQHINVWLSWYQQKPGKAPKLLIYKASNLHTGVPSRFSGSGSGTDFTLTISSLQPEDFATYYCQQGQTYPRTFGQGTKVEIK
notes: Humanized variant of CL0020123
The Kd is the constant that tells how readily two partners part at equilibrium. One may read the EC50 as the concentration giving half of the maximal effect. Read a low EC50 as an effect from little substance. Consider B1, for which, in assay [5], the Kd stood at 9.3 nM. Also, the EC50 with sTREM2 in cynomolgus CSF is 49.4 nM.

B2: CL0020123 (antibody, V domains shown)
VH: EVQLQQSGAELVRSGASVKLSCTASGFSIEDFYIHWVKQRPEQGLEWIGWIDPENGDSKYAPKFQGKATMTADTSSNTAYLHLSSLTSEDTAVYYCHADHGNYGSTMDYWGQGTSVTVSS
VL: DIQMNQSPSSLSASLGDTVTITCHASQHINVWLSWYQQKPGDHPKLLIYKASNLHTGVPSRFSGSGSGTGFTLTISSLQPEDIATYYCQQGQTYPRTFGGGTKLEIK
notes: also called Clone CL0020123
As to B2, the Kd in assay [6] was 5.7 nM. Also, in assay [3], the “A450 fold over background (background = isotype control)” value came to 0.9 fold.

B3: CL0020123-7 (antibody, V domains shown)
VH: QVQLVQSGAEVKKPGASVKVSCKASGFSIEDFYIHWVRQAPGQGLEWMGWIDPENGESKYAPKFQGRVTITADTSTSTAYMELSSLRSEDTAVYYCHADHGNYGSTMDYWGQGTLVTVSS
VL: DIQMTQSPSSLSASVGDRVTITCHASQHINVWLSWYQQKPGKAPKLLIYKASNLHTGVPSRFSGSGSGTDFTLTISSLQPEDFATYYCQQGQTYPRTFGQGTKVEIK
notes: as for B1
For the molecule B3, the Kd in assay [5] is 9.4 nM. A half-maximal response with sTREM2 in cynomolgus CSF (EC50) required 16.9 nM.

B4: Reference antibody #1 (antibody, V domains shown)
VH: EVQLVQSGAEVKKPGESLKISCKGSGHSFTNYWIAWVRQMPGKGLEWMGIIYPGDSDTRYSPSFQGQVTISADKSISTAYLQWSSLKASDTAVYFCARQRTFYYDSSGYFDYWGQGTLVTVSS
VL: DIQMTQSPSSVSASVGDRVTITCRASQGISNWLAWYQQKPGKAPKLLIYAASSLQVGVPLRFSGSGSGTDFTLTISSLQPEDFATYYCQQADSFPRNFGQGTKLEIK
notes: also called 4C5 (WO 2018/195506)
Regarding B4, the Kd in assay [5] was 14 nM. The same molecule showed an EC50 in the assay with sTREM2 in cynomolgus CSF of 81.6 nM.

B5: Reference antibody #2 (antibody, V domains shown)
VH: EVQLVQSGAEVKKPGESLKISCKGSGYSFTSYWIAWVRQMPGKGLEWMGIIYPGDSDTRYSPSFQGQVTISADKSISTAYLQWSSLKASDTAMYFCARQRTFYYDSSDYFDYWGQGTLVTVSS
VL: DIQMTQSPSSVSASVGDRVTITCRASQGISSWLAWYQQKPGKAPKLLIYAASSLQNGVPSRFSGSGSGTDFTLTISSLQPEDFATYFCQQADSFPRTFGQGTKLEIK
notes: also called 6E7 (WO 2018/195506)
Consider B5, for which, in assay [5], the Kd stood at 9.2 nM. The molecule further gave a 50% effective concentration (EC50) with sTREM2 in cynomolgus CSF of 6.5 nM.

B6: CL0020188-7 (antibody, V domains shown)
VH: EVQLVESGGGLVQPGGSLRLSCAASGFTFTDFYMSWVRQAPGKGLEWVSVIRNKANAYTAGYNPSVKGRFTISRDNSKNTLYLQMNSLRAEDTAVYYCARLTYGFDYWGQGTLVTVSS
VL: DIVMTQTPLSLPVTPGEPASISCQSSKSLLHSTGKTYLNWYLQKPGQSPQLLIYWMSTRASGVPDRFSGSGSGTDFTLKISRVEAEDVGVYYCQQFLEYPFTFGQGTKVEIK
notes: Humanized variant of CL0020188
As to B6, the Kd in assay [5] amounted to 2.8 nM. The EC50 in the assay with sTREM2 in cynomolgus CSF turned out to be 0.72 nM.

B7: CL0020188-4 (antibody, V domains shown)
VH: EVQLVESGGGLVQPGGSLRLSCAGSGFTFTDFYMSWVRQAPGKGPEWLSVIRNKANGYTAGYNPSVKGRFTISRDNSKNTLYLQMNSLRAEDTAVYYCARLTYGFDYWGQGTLVTVSS
VL: DIVMTQTPLSLPVTPGEPASISCQSSKSLLHSTGKTYLNWYLQKPGQSPQLLIYWMSTRASGVPDRFSGSGSGTDFTLKISRVEAEDVGVYYCQQFLEYPFTFGQGTKVEIK
notes: as for B6
Regarding B7, in assay [5], the Kd was determined as 1.5 nM. In the assay with sTREM2 in cynomolgus CSF, this molecule had an EC50 of 0.28 nM.

B8: CL0020188 (antibody, V domains shown)
VH: EVKLLDSGGGLVQAGGSLRLSCAGSGFTFTDFYMSWIRQPPGKAPEWLGVIRNKANGYTAGYNPSVKGRFTISRDNTQNILYLQMNTLRAEDTAIYYCARLTYGFDYWGQGVMVTVSS
VL: DIVMTQGALPNPVPSGESASITCQSSKSLLHSNGKTYLNWYLQRPGQSPQLLIYWMSTRASGVSDRFSGSGSGTDFTLKISSVEAEDVGVYYCQQFLEYPFTFGSGTKLEIK
notes: also called Clone CL0020188
For B8, in assay [6], the Kd turned out to be 2 nM. Further, the “A450 fold over background (background = isotype control)” value came to 0.9 fold in assay [3] and 3 fold in assay [4].

B9: Reference antibody #3 (antibody, V domains shown)
VH: QVQLVQSGAEVKKPGASVKVSCKASGYAFSSQWMNWVRQAPGQRLEWIGRIYPGGGDTNYAGKFQGRVTITADTSASTAYMELSSLRSEDTAVYYCARLLRNQPGESYAMDYWGQGTLVTVSS
VL: DVVMTQSPDSLAVSLGERATINCRSSQSLVHSNRYTYLHWYQQKPGQSPKLLIYKVSNRFSGVPDRFSGSGSGTDFTLKISRVEAEDVGVYYCSQSTRVPYTFGQGTKLEIK
notes: also called AL2p-58 (WO 2019/028292)
B9: the Kd in assay [5] worked out at 9.2 nM. This molecule registered a 50% effective concentration (EC50) with sTREM2 in cynomolgus CSF of 33.7 nM.

Values taken from patent US20220073609A1 (DENALI THERAPEUTICS, published 2022).
